Reference: publication PMC5634496 (Nature Communications, 2017)
Blank lines part the entries; values can stand above or below the binder they belong to.

Columns and labels:
[1] = target: the molecule itself; assay: native gel or EMSA; proteins purified on anti-Flag M2 magnetic beads, eluted, resolved on 10% native gel, immunoblot with Flag antibody
GST-Ubc13 = target: T1, GST-Ubc13 (UniProt P61088 1-152); assay: pull-down; purified GST-Ubc13 (or GST) mixed with purified TRAF6 fragments and glutathione sepharose beads in lysis buffer A (20 mM Tris-HCl pH 7.4, 150 mM NaCl, 0.5% NP-40, 10% glycerol), 4 °C, 60 min; immunoblot; conditions: both partners purified
T1 construct: Ubc13 (UBE2N), cDNA in pGEX-4T-1; The end of GST is read from the printed name GST-Ubc13; also called UBE2N; source: E. coli BL21(DE3/pLys), purified (glutathione sepharose beads); not shown: GST, N-terminal, kept
T1 sequence (looked up): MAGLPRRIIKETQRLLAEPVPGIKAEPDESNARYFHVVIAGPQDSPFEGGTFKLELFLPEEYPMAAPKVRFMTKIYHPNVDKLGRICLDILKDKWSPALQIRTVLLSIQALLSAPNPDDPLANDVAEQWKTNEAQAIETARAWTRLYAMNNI

B1: TRAF6 mutant M5 (deletion of amino acids 313-319), Flag-tagged (natural protein, mouse, UniProt P70196-1 1-530, looked up)
chain: MSLLNCENSCGSSQSSSDCCAAMAASCSAAVKDDSVSGSASTGNLSSSFMEEIQGYDVEFDPPLESKYECPICLMALREAVQTPCGHRFCKACIIKSIRDAGHKCPVDNEILLENQLFPDNFAKREILSLTVKCPNKGCLQKMELRHLEDHQVHCEFALVNCPQCQRPFQKCQVNTHIIEDCPRRQVSCVNCAVSMAYEEKEIHDQSCPLANIICEYCGTILIREQMPNHYDLDCPTAPIPCTFSVFGCHEKMQRNHLARHLQENTQLHMRLLAQAVHNVNLALRPCDAASPSRGCRPEDPNYEETIKQLESQIRELTAKMETQSMYVGELKRTIRTLEDKVAEMEAQQCNGIYIWKIGNFGMHLKSQEEERPVVIHSPGFYTGRPGYKLCMRLHLQLPTAQRCANYISLFVHTMQGEYDSHLPWPFQGTIRLTILDQSEALIRQNHEEVMDAKPELLAFQRPTIPRNPKGFGYVTFMHLEALRQGTFIKDDTLLVRCEVSTRFDMGGLRKEGFQPRSTDAGV
notes: TRAF6, mouse, mutant M5: one complete heptad unit of the CC domain deleted; they may differ; also called TRAF6-M5; source: co-IP: Flag-tagged with Myc-tagged TRAF6 WT
binding result [1]: binds

binding result (GST-Ubc13): binds
B2: CC-Flag (TRAF6 coiled-coil domain) (domain or fragment, mouse, UniProt P70196-1 296-400, looked up)
chain: CRPEDPNYEETIKQLESRLVRQDHQIRELTAKMETQSMYVGELKRTIRTLEDKVAEMEAQQCNGIYIWKIGNFGMHLKSQEEERPVVIHSPGFYTGRPGYKLCMR
notes: TRAF6 CC domain, mouse; the limits 296-400 aa are printed in the methods for the CC domain cloned with an MBP tag for E. coli; The end of Flag is read from the printed name CC-Flag; also called CC domain; CC WT; not shown: Flag, C-terminal, kept

B3: TRAF6 mutant M4 (V315A, R316A, H319A), Flag-tagged (natural protein, mouse, UniProt P70196-1 1-530, looked up)
chain: MSLLNCENSCGSSQSSSDCCAAMAASCSAAVKDDSVSGSASTGNLSSSFMEEIQGYDVEFDPPLESKYECPICLMALREAVQTPCGHRFCKACIIKSIRDAGHKCPVDNEILLENQLFPDNFAKREILSLTVKCPNKGCLQKMELRHLEDHQVHCEFALVNCPQCQRPFQKCQVNTHIIEDCPRRQVSCVNCAVSMAYEEKEIHDQSCPLANIICEYCGTILIREQMPNHYDLDCPTAPIPCTFSVFGCHEKMQRNHLARHLQENTQLHMRLLAQAVHNVNLALRPCDAASPSRGCRPEDPNYEETIKQLESRLAAQDAQIRELTAKMETQSMYVGELKRTIRTLEDKVAEMEAQQCNGIYIWKIGNFGMHLKSQEEERPVVIHSPGFYTGRPGYKLCMRLHLQLPTAQRCANYISLFVHTMQGEYDSHLPWPFQGTIRLTILDQSEALIRQNHEEVMDAKPELLAFQRPTIPRNPKGFGYVTFMHLEALRQGTFIKDDTLLVRCEVSTRFDMGGLRKEGFQPRSTDAGV
notes: TRAF6, mouse, mutant M4 in the CC domain; they may differ (MBP fusion, T6RZC background); also called TRAF6-M4; source: co-IP: Flag-tagged with Myc-tagged TRAF6 WT
binding result [1]: binds
